Data from article PMC10911789.

Target: Recombinant spike, SARS-CoV-2 stabilized protein (BEI Resources NR-52724) (SARS-CoV-2) (UniProt P0DTC2)
Assay: BLI

recombinant human GAPDH (glyceraldehyde-3-phosphate dehydrogenase), sequence (P04406 whole entry): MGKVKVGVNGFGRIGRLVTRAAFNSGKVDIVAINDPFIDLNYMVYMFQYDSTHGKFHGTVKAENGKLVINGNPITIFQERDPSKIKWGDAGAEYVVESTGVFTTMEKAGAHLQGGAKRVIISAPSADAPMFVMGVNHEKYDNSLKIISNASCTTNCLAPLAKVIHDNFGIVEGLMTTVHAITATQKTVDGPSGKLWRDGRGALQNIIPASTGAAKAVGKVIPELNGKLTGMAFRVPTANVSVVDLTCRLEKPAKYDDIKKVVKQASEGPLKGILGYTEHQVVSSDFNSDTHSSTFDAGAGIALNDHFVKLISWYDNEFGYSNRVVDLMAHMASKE

Substance: recombinant human GAPDH (glyceraldehyde-3-phosphate dehydrogenase) (from UniProt P04406 1-335) (enzyme)
- Kd: 61.9 nM
